We go through five molecules from EP3653708A1, “ISOMALTULOSE PRODUCTION” (Evonik Operations GmbH, priority 2018, dated 2020).

The Km is the substrate concentration at which the rate is half of its maximum. What is called kcat is the maximal rate divided by the concentration of active sites. One may read the kcat/Km as the turnover number divided by the Michaelis constant.

Data set [1] deals with OC[C@H]1O[C@@](CO)(O[C@H]2O[C@H](CO)[C@@H](O)[C@H](O)[C@H]2O)[C@@H](O)[C@@H]1O. In words: Michaelis-Menten kinetics of the conversion of sucrose into isomaltulose (HPLC, initial velocities). The data set is classed as biochemical, Serratia plymuthica. Conditions: 25 mM calcium acetate pH 5.5, 20 °C, 74.7 nM enzyme, 50-400 mM sucrose. As for the experimental part: (§1) The enzyme activity assay was carried out in 25 mM calcium acetate pH 5.5 in the presence of 1.16 M sucrose (Sigma-Aldrich, St. Louis, MO) for 16 h at 20 °C.
(§2) The reaction mixture was composed as follows:
(§3) The enzymatic product composition was determined on an Agilent 1200 HPLC instrument (Agilent Technologies, Santa Clara, United States of America) equipped with a Smart line refractive index detector 2300 (Knauer, Berlin, Germany). The sample solution was applied on an XBridge amide column (particle size: 5.0 µm, inner diameter: 4.6, length: 250 mm); (Waters, Milford, MA) at a flow rate of 2 mL/min using a running buffer of 57.8 % acetonitrile, 26.1 % acetone and 16.1 % H2O.
The Michaelis constant (KM), the turnover number (kcat) and the catalytic efficiency (kcat/KM) were determined for isomaltulose. To this end, the enzymatic reaction was carried out as described above at sucrose concentrations of 50 mM, 100 mM, 150 mM, 200 mM, 300 mM and 400 mM and stopped after 10 min, 20 min, 30 min and 40 min by heating the sample at 95 °C for 10 min. To determine the initial velocities at these sucrose concentrations, the isomaltulose yield was analysed via HPLC and plotted against the […]. The slope of the subsequent linear regression corresponded to the initial velocity.
Figure 1 illustrates analysis of the enzyme kinetics and the product spectrum of mutant SmuA. […] The initial velocities for the production of isomaltulose were measured by HPLC at sucrose concentrations of 50 mM, 100 mM, 150 mM, 200 mM, 300 mM, and 400 mM. The enzyme activity assay was carried out in 25 mM calcium acetate buffer pH 5.5 at 20 °C and 74.7 nM of the enzyme. […] Chromatographic conditions: XBridge amide column (particle size: 5.0 µm, inner diameter: 4.6, length: 250 mm); flow rate: 2 mL/min; injection volume: 20 µL; running buffer: 57.8 % acetonitrile, 26.1 % acetone, 16.1 % H2O. Detection via Smartline refractive index detector 2300. The enzyme activity assay was carried out in 25 mM calcium acetate buffer pH 5.5 in the presence of 1.16 M sucrose and 74.4 nM of the recombinant wild type enzyme for 16 h at 20 °C. Table 1: Composition of the isomerization products from sucrose by engineered SmuA variants.

Data set [2] concerns the target Serratia plymuthica sucrose isomerase SmuA variant SmuA(Q181P/D398G/F453Y) (Serratia plymuthica, UniProt D0VX20, D383G/F438Y/Q166P/V450E). The description is as above. Conditions: 25 mM calcium acetate pH 5.5, 20 °C, 74.7 nM enzyme, 50-400 mM sucrose. Format: biochemical. Here is the method: as §1, §2, §3
The Michaelis constant (KM), the turnover number (kcat) and the catalytic efficiency (kcat/KM) were determined for isomaltulose. […] To determine the initial velocities at these sucrose concentrations, the isomaltulose yield was analysed via HPLC and plotted against the respective sucrose concentration. […]
Figure 1 illustrates analysis of the enzyme kinetics and the product spectrum of mutant SmuA. […] The initial velocities for the production of isomaltulose were measured by HPLC at sucrose concentrations of 50 mM, 100 mM, 150 mM, 200 mM, 300 mM, and 400 mM. […]

The mark [3] stands for this setting: other: SmuA(Y219L/T369F/D398G/F453Y).

Turning to “Serratia plymuthica sucrose isomerase SmuA variant SmuA(Y219L/T369F/D398G/F453Y) (Serratia plymuthica; D383G/F438Y/T354F/V450E/Y204L)”, in data set [1] (setting [3]), the Km came out at 58.16 mM, the kcat came out at 201.07 s⁻¹ and the kcat/Km came to 3460 M⁻¹ s⁻¹.

Take “Serratia plymuthica sucrose isomerase SmuA variant SmuA(Y219L) (Serratia plymuthica; V450E/Y204L)”: in data set [1] (other: SmuA(Y219L)), the Km is reported as 86.64 mM, the turnover number (kcat) amounted to 665.77 s⁻¹ and the specificity constant (kcat/Km) is 7680 M⁻¹ s⁻¹.

As to “Serratia plymuthica sucrose isomerase SmuA, used as wildtype SmuA (UniProt D0VX20 with point mutation V465E, SEQ ID NO:3) (Serratia plymuthica; V450E)”, in data set [1] (other: SmuA), the Km amounted to 55.25 mM, the turnover number (kcat) is 965.15 s⁻¹ and the kcat/Km was 17470 M⁻¹ s⁻¹.

For the molecule `OC[C@H]1O[C@@](CO)(O[C@H]2O[C@H](CO)[C@@H](O)[C@H](O)[C@H]2O)[C@@H](O)[C@@H]1O` [sucrose], the kcat in data set [2] stood at 122.88 s⁻¹.

Regarding “Serratia plymuthica sucrose isomerase SmuA variant SmuA(Y219L/D398G) (Serratia plymuthica; D383G/V450E/Y204L)”, in data set [1] (other: SmuA(Y219L/D398G)), the Km is 60.16 mM, the kcat amounted to 708.22 s⁻¹ and the kcat/Km is 11770 M⁻¹ s⁻¹.
